In patent US20130058911:

Tested on: metmyoglobin

| Substance | metmyoglobin reduction activity (change in A406 with NADH) |
| --- | --- |
| recombinant malate dehydrogenase (MDH) of Bacillus natto with C-terminal 6x His-tag | the activity of MDH was not found |
| recombinant putative NAD(P)H nitroreductase (yodC) of Bacillus natto with C-terminal 6x His-tag | the activity of yodC was confirmed |
